Measured values published in paper PMC6025699, “Acetylation Regulates Thioredoxin Reductase Oligomerization and Activity” (Antioxidants & Redox Signaling, 2018).
Where “and” joins values, the source holds several entries; their conditions need not be identical. Equal entries are not always repeated.

What was measured:
[1] = molecular target: the molecule itself; experiment: SEC; native size exclusion chromatography, Superdex 200 Increase 10/300 GL, 20 mM sodium phosphate, 150 mM sodium chloride, pH 7.5; 0.5 mL fractions read by anti-His Western blot (densitometry) and DTNB activity; self-association: monomers, dimers, tetramers
[2] = molecular target: the molecule itself; experiment: cell-based or functional assay

Protein	stoichiometry N [1]	9,10-phenanthrequinone assay, relative activity (x-fold, WT TrxR1 = 1), 100 nM TrxR1 [2] [x-fold]	DTNB assay, relative activity (x-fold, WT TrxR1 = 1), 50 nM TrxR1 [2] [x-fold]	insulin linked Trx1 assay, relative activity (x-fold, WT TrxR1 = 1), 200 nM TrxR1 [2] [x-fold]
acetylated thioredoxin reductase 1, Nɛ-acetyl-lysine at K141 (acTrxR1^K141) (enzyme, human, UniProt Q16881-4 1-551, looked up, Nɛ-acetyl-lysine at 141; selenocysteine (Sec) at 550, Same construct as m1 but for the acetyl-lysine at 141; source: E. coli BL21 DE3 or E. coli ΔRF1 (C321.ΔA.exp) with acKRS/tRNA^Pyl, purified (Ni-NTA, size-exclusion chromatography)) MSCEDGRALEGTLSELAAETDLPVVFVKQRKIGGHGPTLKAYQEGRLQKLLKMNGPEDLPKSYDYDLIIIGGGSGGLAAAKEAAQYGKKVMVLDFVTPTPLGTRWGLGGTCVNVGCIPKKLMHQAALLGQALQDSRNYGWKVEETVKHDWDRMIEAVQNHIGSLNWGYRVALREKKVVYENAYGQFIGPHRIKATNNKGKEKIYSAERFLIATGERPRYLGIPGDKEYCISSDDLFSLPYCPGKTLVVGASYVALECAGFLAGIGLDVTVMVRSILLRGFDQDMANKIGEHMEEHGIKFIRQFVPIKVEQIEAGTPGRLRVVAQSTNSEEIIEGEYNTVMLAIGRDACTRKIGLETVGVKINEKTGKIPVTDEEQTNVPYIYAIGDILEDKVELTPVAIQAGRLLAQRLYAGSTVKCDYENVPTTVFTPLEYGACGLSEEKAVEKFGEENIEVYHSYFWPLEWTIPSRDNNKCYAKIICNTKDNERVVGFHVLGPNAGEVTQGFAAALKCGLTKKQLDSTIGIHPVCAEVFTTLSVTKRSGASILQAGCUG	2 and 4	1.2	1.8	1.8
wild-type thioredoxin reductase 1 (human TrxR1, isoform 4, Sec550) (enzyme, UniProt Q16881-4 1-551, looked up, selenocysteine (Sec) at 550, amplified with a forward primer at the ATG (NdeI) and a reverse primer behind the fdhF SecIS in the 3' UTR; In solution a mixture of monomers, dimers, tetramers and covalently linked dimers; also called WT TrxR1; His6-TrxR1; source: E. coli BL21 DE3 or E. coli ΔRF1 (C321.ΔA.exp), purified (Ni-NTA, size-exclusion chromatography)) MSCEDGRALEGTLSELAAETDLPVVFVKQRKIGGHGPTLKAYQEGRLQKLLKMNGPEDLPKSYDYDLIIIGGGSGGLAAAKEAAQYGKKVMVLDFVTPTPLGTRWGLGGTCVNVGCIPKKLMHQAALLGQALQDSRNYGWKVEETVKHDWDRMIEAVQNHIGSLNWGYRVALREKKVVYENAYGQFIGPHRIKATNNKGKEKIYSAERFLIATGERPRYLGIPGDKEYCISSDDLFSLPYCPGKTLVVGASYVALECAGFLAGIGLDVTVMVRSILLRGFDQDMANKIGEHMEEHGIKFIRQFVPIKVEQIEAGTPGRLRVVAQSTNSEEIIEGEYNTVMLAIGRDACTRKIGLETVGVKINEKTGKIPVTDEEQTNVPYIYAIGDILEDKVELTPVAIQAGRLLAQRLYAGSTVKCDYENVPTTVFTPLEYGACGLSEEKAVEKFGEENIEVYHSYFWPLEWTIPSRDNNKCYAKIICNTKDNERVVGFHVLGPNAGEVTQGFAAALKCGLTKKQLDSTIGIHPVCAEVFTTLSVTKRSGASILQAGCUG	2 and 4			
acetylated thioredoxin reductase 1, Nɛ-acetyl-lysine at K307 (acTrxR1^K307) (enzyme, human, UniProt Q16881-4 1-551, looked up, Nɛ-acetyl-lysine at 307; selenocysteine (Sec) at 550, Same construct as m1 but for the acetyl-lysine at 307; source: E. coli BL21 DE3 or E. coli ΔRF1 (C321.ΔA.exp) with acKRS/tRNA^Pyl, purified (Ni-NTA, size-exclusion chromatography)) MSCEDGRALEGTLSELAAETDLPVVFVKQRKIGGHGPTLKAYQEGRLQKLLKMNGPEDLPKSYDYDLIIIGGGSGGLAAAKEAAQYGKKVMVLDFVTPTPLGTRWGLGGTCVNVGCIPKKLMHQAALLGQALQDSRNYGWKVEETVKHDWDRMIEAVQNHIGSLNWGYRVALREKKVVYENAYGQFIGPHRIKATNNKGKEKIYSAERFLIATGERPRYLGIPGDKEYCISSDDLFSLPYCPGKTLVVGASYVALECAGFLAGIGLDVTVMVRSILLRGFDQDMANKIGEHMEEHGIKFIRQFVPIKVEQIEAGTPGRLRVVAQSTNSEEIIEGEYNTVMLAIGRDACTRKIGLETVGVKINEKTGKIPVTDEEQTNVPYIYAIGDILEDKVELTPVAIQAGRLLAQRLYAGSTVKCDYENVPTTVFTPLEYGACGLSEEKAVEKFGEENIEVYHSYFWPLEWTIPSRDNNKCYAKIICNTKDNERVVGFHVLGPNAGEVTQGFAAALKCGLTKKQLDSTIGIHPVCAEVFTTLSVTKRSGASILQAGCUG	2 and 4	1.3	2.7	2
acetylated thioredoxin reductase 1, Nɛ-acetyl-lysine at K200 (acTrxR1^K200) (enzyme, human, UniProt Q16881-4 1-551, looked up, Nɛ-acetyl-lysine at 200; selenocysteine (Sec) at 550, Same construct as m1 but for the acetyl-lysine at 200; source: E. coli BL21 DE3 or E. coli ΔRF1 (C321.ΔA.exp) with acKRS/tRNA^Pyl, purified (Ni-NTA, size-exclusion chromatography)) MSCEDGRALEGTLSELAAETDLPVVFVKQRKIGGHGPTLKAYQEGRLQKLLKMNGPEDLPKSYDYDLIIIGGGSGGLAAAKEAAQYGKKVMVLDFVTPTPLGTRWGLGGTCVNVGCIPKKLMHQAALLGQALQDSRNYGWKVEETVKHDWDRMIEAVQNHIGSLNWGYRVALREKKVVYENAYGQFIGPHRIKATNNKGKEKIYSAERFLIATGERPRYLGIPGDKEYCISSDDLFSLPYCPGKTLVVGASYVALECAGFLAGIGLDVTVMVRSILLRGFDQDMANKIGEHMEEHGIKFIRQFVPIKVEQIEAGTPGRLRVVAQSTNSEEIIEGEYNTVMLAIGRDACTRKIGLETVGVKINEKTGKIPVTDEEQTNVPYIYAIGDILEDKVELTPVAIQAGRLLAQRLYAGSTVKCDYENVPTTVFTPLEYGACGLSEEKAVEKFGEENIEVYHSYFWPLEWTIPSRDNNKCYAKIICNTKDNERVVGFHVLGPNAGEVTQGFAAALKCGLTKKQLDSTIGIHPVCAEVFTTLSVTKRSGASILQAGCUG	2 and 4	1.4	2.1	1.9
